Laboratory results from PMC5053164.

Legend:
[1] = aggregation after overnight glycosidase digestion; details: glycan lost; control: untreated
[2] = yield of purified secreted protein, SDS-PAGE; details: glycan lost; control: wild type

Protein	stability_or_folding [1]	expression_or_secretion [2]
DORN1 extracellular domain (atDORN1-ECD; LecRK-I.9): PNGase F (protein) parent chain: MARWLLQILIISSLHLSSVSSQQETSFVYESFLDRQNLYLDKSAIVLPSGLLQLTNASEHQMGHAFHKKPIEFSSSGPLSFSTHFVCALVPKPGFEGGHGIVFVLSPSMDFTHAESTRYLGIFNASTNGSSSYHVLAVELDTIWNPDFKDIDHNHVGIDVNSPISVAIASASYYSDMKGSNESINLLSGNPIQVWVDYEGTLLNVSVAPLEVQKPTRPLLSHPINLTELFPNRSSLFAGFSAATGTAISDQYILWWSFSIDRGSLQRLDISKLPEVPHPRAPHKKVSTLIILLPVCLAILVLAVLAGLYFRRRRKYSEVSETWEKEFDAHRFSYRSLFKATKGFSKDEFLGKGGFGEVYRGNLPQGREIAVKRVSHNGDEGVKQFVAEVVSMRCLKHRNLVPLFGYCRRKRELLLVSEYMPNGSLDEHLFDDQKPVLSWSQRLVVVKGIASALWYLHTGADQVVLHRDVKASNIMLDAEFHGRLGDFGMARFHEHGGNAATTAAVGTVGYMAPELITMGASTGTDVYAFGVFMLEVTCGRRPVEPQLQVEKRHMIKWVCECWKKDSLLDATDPRLGGKFVAEEVEMVMKLGLLCSNIVPESRPTMEQVVLYLNKNLPLPDFSPYTLGIGTFAPVLVDASSLVVSSASWSLSGPSMSSSSPNHSPYAWQSTDQPWGQTIDTKNSLHIVAEPEKPSPAVKMVTLPAEDPQSNHSSISSQRVQPVKREKRRLHQILVAFPWINKQYFKLGLPKHIVHVSLFFFLQLARL	decreases	–
DORN1 extracellular domain (atDORN1-ECD; LecRK-I.9): Endo H (protein) parent chain: MARWLLQILIISSLHLSSVSSQQETSFVYESFLDRQNLYLDKSAIVLPSGLLQLTNASEHQMGHAFHKKPIEFSSSGPLSFSTHFVCALVPKPGFEGGHGIVFVLSPSMDFTHAESTRYLGIFNASTNGSSSYHVLAVELDTIWNPDFKDIDHNHVGIDVNSPISVAIASASYYSDMKGSNESINLLSGNPIQVWVDYEGTLLNVSVAPLEVQKPTRPLLSHPINLTELFPNRSSLFAGFSAATGTAISDQYILWWSFSIDRGSLQRLDISKLPEVPHPRAPHKKVSTLIILLPVCLAILVLAVLAGLYFRRRRKYSEVSETWEKEFDAHRFSYRSLFKATKGFSKDEFLGKGGFGEVYRGNLPQGREIAVKRVSHNGDEGVKQFVAEVVSMRCLKHRNLVPLFGYCRRKRELLLVSEYMPNGSLDEHLFDDQKPVLSWSQRLVVVKGIASALWYLHTGADQVVLHRDVKASNIMLDAEFHGRLGDFGMARFHEHGGNAATTAAVGTVGYMAPELITMGASTGTDVYAFGVFMLEVTCGRRPVEPQLQVEKRHMIKWVCECWKKDSLLDATDPRLGGKFVAEEVEMVMKLGLLCSNIVPESRPTMEQVVLYLNKNLPLPDFSPYTLGIGTFAPVLVDASSLVVSSASWSLSGPSMSSSSPNHSPYAWQSTDQPWGQTIDTKNSLHIVAEPEKPSPAVKMVTLPAEDPQSNHSSISSQRVQPVKREKRRLHQILVAFPWINKQYFKLGLPKHIVHVSLFFFLQLARL	decreases	–
DORN1 extracellular domain (atDORN1-ECD; LecRK-I.9): N225D (protein) parent chain: MARWLLQILIISSLHLSSVSSQQETSFVYESFLDRQNLYLDKSAIVLPSGLLQLTNASEHQMGHAFHKKPIEFSSSGPLSFSTHFVCALVPKPGFEGGHGIVFVLSPSMDFTHAESTRYLGIFNASTNGSSSYHVLAVELDTIWNPDFKDIDHNHVGIDVNSPISVAIASASYYSDMKGSNESINLLSGNPIQVWVDYEGTLLNVSVAPLEVQKPTRPLLSHPINLTELFPNRSSLFAGFSAATGTAISDQYILWWSFSIDRGSLQRLDISKLPEVPHPRAPHKKVSTLIILLPVCLAILVLAVLAGLYFRRRRKYSEVSETWEKEFDAHRFSYRSLFKATKGFSKDEFLGKGGFGEVYRGNLPQGREIAVKRVSHNGDEGVKQFVAEVVSMRCLKHRNLVPLFGYCRRKRELLLVSEYMPNGSLDEHLFDDQKPVLSWSQRLVVVKGIASALWYLHTGADQVVLHRDVKASNIMLDAEFHGRLGDFGMARFHEHGGNAATTAAVGTVGYMAPELITMGASTGTDVYAFGVFMLEVTCGRRPVEPQLQVEKRHMIKWVCECWKKDSLLDATDPRLGGKFVAEEVEMVMKLGLLCSNIVPESRPTMEQVVLYLNKNLPLPDFSPYTLGIGTFAPVLVDASSLVVSSASWSLSGPSMSSSSPNHSPYAWQSTDQPWGQTIDTKNSLHIVAEPEKPSPAVKMVTLPAEDPQSNHSSISSQRVQPVKREKRRLHQILVAFPWINKQYFKLGLPKHIVHVSLFFFLQLARL	–	no change
